From paper PMC6909241 come the findings set out here.

This data set deals with NCp7 (nucleocapsid protein) (HIV-1, UniProt P12493 378-432). The data set is described as follows: EMSA; 7.5-300 nM NCp7, 15 nM RNA folded in 50 mM KCl; free G4 decreases from 75 nM, near complete disappearance and faint complex at 300 nM; EMSA: RNA annealed in 10 mM Li cacodylate pH 7.4, 50 mM KCl; 15 nM RNA in 8% glycerol, 30 mM Tris-HCl, 15 mM MgCl2, 50 uM ZnCl2, 37 C; 12% native gel at 4 C. (In general: A gel shift assay detects complexes by their altered migration in electrophoresis.)

With GGGAGGCGUGGCCUGGGCGGGACUGGGGAGUGG (structured_RNA) [RNA U3-III+IV G4], the binding result is “binds”.
